US20230322924A1 (Janssen / Centocor, published 2023)

What was measured:
[1] = target: T1, Cyno CD33 full length, expressed on HEK293F cells (cynomolgus monkey); experiment: flow cytometry, HEK293F cells expressing cyno CD33
T1 construct: HEK293F cells transduced with lentivirus containing full length cyno CD33 (Genbank XP_005590138.1); also called cyCD33
Method: (§1) OMNIRat antibodies identified via immunization, v-region cloned and subsequently expressed and purified were characterized further for binding to CD33 expressing cells and binding to recombinant antigens. The purified antibodies were assessed for binding to stably transfected HEK293F cells expressing human CD33 or cyno CD33 (generation described above) along with the parental HEK293F as negative control. Cells were harvested from tissue culture flasks using non-enzymatic dissociation buffer (Thermo Scientific). The flasks were rinsed twice with PBS and dissociation buffer was added to the flask, and the flask was incubated for 10 minutes at 37° C. until the cells became non-adherent. The cells were centrifuged at 300 g for 5 minutes and resuspended at 1.0×10⁶ cells/ml in staining buffer (Becton Dickinson; Franklin Lakes, NJ). 50,000 cells/well of each cell type was plated in 50 μl of staining buffer in round bottom plates (Becton Dickinson). […] 100 μl staining buffer was added to all wells of each plate, the plates were spun at 300 g for 5 min, the buffer was removed, 200 μl staining buffer was added to all wells of each plate, the plates were spun at 300 g for 5 min, and the buffer was removed. 50 μl of 2 μg/ml of Goat-anti-human Fc AF647 secondary antibody (Jackson Immunoresearch; West Grove, PA) was added to all wells of the plates, and the plates were incubated for 30 min at 4° C. 100 μl staining buffer was added to all wells of the plates, the plates were spun at 300 g for 5 min, and the buffer was removed. 200 μl running buffer (running buffer is Staining buffer, 1 mM EDTA, 0.1% Pluronic Acid) was added to all wells of the plates, the plates were spun at 300 g for 5 min, and the buffer was removed. 30 μl running buffer containing Sytox Green live/dead dye (ThermoFisher) was added to all wells with cells and the plates were read on an iQue IntelliCyt flow cytometer. Cells were gated on forward vs. side scatter to eliminate debris, then on singlets and then on live cells which excluded the Sytox stain. Antibody binding was assessed by the mean fluorescence intensity in the AF647 channel.

[2] = target: T2, Human CD33 full length, expressed on HEK293F cells (human, UniProt P20138 18-364); experiment: flow cytometry, HEK293F cells expressing human CD33
T2 construct: HEK293F cells transduced with lentivirus containing full length human CD33; also called huCD33
Method: as §1

Cyno CD33 ECD-HSA [3] = target: T3, Cyno CD33 ECD-HSA (cynomolgus monkey); experiment: ProteOn SPR, mAb captured by anti-human Fc, 1:1 Langmuir fit
T3 construct: Cyno CD33 extracellular domain fused to monomeric human serum albumin and a six-histidine tag; also called C33W1
Method: (§2) The panel of mAbs was then further characterized for full affinity analysis as well as epitope binning. The binding of anti-CD33 mAbs to recombinant human CD33 ECD-HSA (C33W2) and cyno CD33 ECD-HSA (C33W1) was measured by ProteOn SPR (Bio-Rad). […] Different mAbs were captured on the anti-human Fc IgG surface at 0.25 or 0.5 μg/ml (160-300 RU) in vertical ligand orientation, with the 6th ligand channel as no ligand surface control. Human and cyno CD33-HSA proteins at 0.3 μM concentration in 3-fold dilution series of 5 concentrations flew in as analyte to bind to captured mAbs in the horizontal orientation. A buffer sample was also injected in the 6th channel to monitor the dissociation of captured mAb and baseline stability. […] The raw biding data were processed by double referencing after subtracting the response data from: 1) the inter-spot to correct for the non-specific interactions between the Ag and the empty chip surface; 2) the buffer channel to correct for baseline drifting due to the dissociation of captured mAb surface over time. The processed data at all antigen concentrations for each mAb were globally fit to a 1:1 simple Langmuir binding model to extract estimates of the kinetic (kₒₙ, koff) and affinity (Kd) constants.

Human CD33 ECD-HSA [4] = target: Human CD33 ECD-HSA (human); experiment: as above
Method: as §2

Human CD33 ECD-HSA [5] = target: Human CD33 ECD-HSA (human); experiment: SPRi off-rate screen (IBIS MX96), mAb captured by anti-human Fc; column head prints KD
Method: (§3) To begin assessing the biophysical binding properties of the purified mAbs an off-rate screen was performed. 76 OMNIRat anti-CD33 mAbs were tested for binding to recombinant human CD33 ECD-HSA (C33W2) and cyno CD33 ECD-HSA (C33W1) proteins (Janssen production) and the off-rate was measured by IBIS MX96 SPRi array platform (Carterra; Newton, PA). […] The sensor chip was transferred to the Continuous Flow Microspotter (CFM) unit to capture each anti-CD33 mAb at 10 μg/ml for 10 minutes. Binding was measured on IBIS SPRi by single cycle kinetics without regeneration. […] The raw binding data (.trix file format) were referenced and aligned using SprintX software (Wasatch, Ver 1.9.3.2), then exported (.ibmx file format) to Scrubber software (Ver. 2.0) for 1:1 binding kinetic analyses (Wasatch, version 2.0.0.33) to extract the koff results.

Cyno CD33 ECD-HSA [6] = target: T3, Cyno CD33 ECD-HSA; experiment: SPRi off-rate screen (IBIS MX96), mAb captured by anti-human Fc; column head prints Cyno CD33 binding KD
Method: as §3

Chain of Human CD33 ECD-HSA (human) (chain, as listed by the source): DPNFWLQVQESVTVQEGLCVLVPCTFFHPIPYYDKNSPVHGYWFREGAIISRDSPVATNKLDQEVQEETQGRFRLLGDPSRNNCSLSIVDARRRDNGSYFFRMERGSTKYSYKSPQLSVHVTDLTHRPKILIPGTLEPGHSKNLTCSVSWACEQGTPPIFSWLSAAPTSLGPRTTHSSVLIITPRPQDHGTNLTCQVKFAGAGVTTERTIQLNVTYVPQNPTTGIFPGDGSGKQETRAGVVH
T2 sequence (P20138 18-364 limits assumed): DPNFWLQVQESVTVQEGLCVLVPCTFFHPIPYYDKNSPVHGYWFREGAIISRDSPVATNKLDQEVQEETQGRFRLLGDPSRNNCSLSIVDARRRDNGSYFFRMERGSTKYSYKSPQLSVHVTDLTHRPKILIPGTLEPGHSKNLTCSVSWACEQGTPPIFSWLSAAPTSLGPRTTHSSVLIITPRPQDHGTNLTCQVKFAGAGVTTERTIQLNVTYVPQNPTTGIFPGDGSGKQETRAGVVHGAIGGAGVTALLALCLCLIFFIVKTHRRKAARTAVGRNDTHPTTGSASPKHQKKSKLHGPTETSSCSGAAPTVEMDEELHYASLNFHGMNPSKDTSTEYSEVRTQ

Row | Binder | MFI at 0 nM mAb (background) [1] [MFI] | MFI at 0.6 nM mAb [1] [MFI] | MFI at 6 nM mAb [1] [MFI] | MFI at 60 nM mAb [1] [MFI] | MFI at 0 nM mAb (background) [2] [MFI] | MFI at 0.6 nM mAb [2] [MFI] | MFI at 6 nM mAb [2] [MFI] | MFI at 60 nM mAb [2] [MFI] | Kd (Cyno CD33 ECD-HSA [3]) [nM] | koff (Cyno CD33 ECD-HSA [3]) [s⁻¹] | kon (Cyno CD33 ECD-HSA [3]) [M⁻¹ s⁻¹] | Kd (Human CD33 ECD-HSA [4]) [nM] | koff (Human CD33 ECD-HSA [4]) [s⁻¹] | kon (Human CD33 ECD-HSA [4]) [M⁻¹ s⁻¹] | koff (Human CD33 ECD-HSA [5]) [s⁻¹] | koff (Cyno CD33 ECD-HSA [6]) [s⁻¹]
1 | C33B61 (antibody, V domains shown, huIgG1 F405L; also called C33F66; C33H48/C33L58) VH: QLQLQESGPGLVKPSETLSLTCTVSGGSIRSTNYYWGWIRQPPGKGLEWIGTIYYSGNTYYNPSLKSRVTISVDTSKNQFSLKLSSVTAADTAVYYCARLADVVVVPAARYFDYWGQGILVTVSS VL: not shown | 107 | 1600 | 8210 | 13600 | 79.8 | 5310 | 38700 | 199000 | 2.21 | 0.00162 | 734000 | 21.4 | 0.0105 | 489000 | 0.00671 | 0.00183
2 | C33B62 (antibody, IgG1, V domains shown, huIgG1 F405L; also called C33F67; C33H49/C33L59) VH: QLQLQESGPGLVKPSETLSLTCTVSGGSIRSSGFYWGWIRQPPRKGLEWIGTIYYSGNTYYNPSLKSRVTISVDTSKNQFSLKLSSVTAADTAVYFCARLADVVVVPAARYFDNWGQGTLVTVSS VL: not shown | 934 | 1920 | 5620 | 12700 | 75 | 6090 | 37400 | 158000 | 1.85 | 0.00149 | 805000 | 24.9 | 0.0126 | 507000 | 0.01 | 0.00132
3 | C33B96 (antibody, IgG1, V domains shown, huIgG1 F405L; also called C33F101; C33H99/C33L37) VH: EVQLVESGGGLVQPGGSLRLSCAASGFTFSSYWMTWVRPAPGKGLEWVANIKRDGGEKYYVDSVKGRFTISRDNAANSLYLQMNSLRVEDTAVYYCARPFYDHFDYWGQGTLVTVSS VL: SYVLTQPPSVAVAPGQTARITCGGSNIGKISVHWYQQKAGQAPVLVVHDDRARPSGIPERLSGSNSGTTATLTISRVEVGDEADYYCQVWNSSSVHPVFGGGTKLTVL | 86.3 | 11600 | 20100 | 37300 | 55.2 | 188000 | 476000 | 476000 |  |  |  | 1.92 | 0.000436 | 226000 | 0.000228 | 0.000819
4 | C33B122 (antibody, IgG1, V domains shown, huIgG1 F405L; also called C33F127; C33H92/C33L30) VH: QLQLQESGPGLVKPSETLSLTCTVSGGSIRSSSYYWGWIRQPPGKGPEWIGSIYSSGNTYYNPSLKSRVTISVDTSKNQFSLKLISMTAADTAVFYCARLAATIVVPAARYFDCWGQGTLVTVSS VL: SYELTQPPSVSVSPGQTVSISCSGDRLGDKYACWYQQKPGQSPVLVIYQDSKRPSGIPERFSGSNSGNTATLTISGTQAMDEADYYCQAWDSSSYVFGTGTKVTVL | 82.5 | 5840 | 13900 | 19700 | 65 | 14300 | 84300 | 259000 |  |  |  | 9.53 | 0.00712 | 747000 | 0.00874 | 0.00145
